Data on one substance can be found in publication PMC4715562.

This test concerns the target Gp7-MyH7-1526-1571 (bacteriophage φ29 | human). Kind of test: crystal structure.

In general, stoichiometry N refers to a count of units in the complex or per binding partner.

As to Gp7-MyH7-1526-1571 (domain or fragment), the stoichiometry N amounted to 2.
